The target of this assay is human glucagon-like peptide-1 receptor (GLP-1R) (human (printed as 'Humanized')) (UniProt P43220). Description: cell-based or functional assay.
human glucagon-like peptide-1 receptor (GLP-1R) (human (printed as 'Humanized')), sequence (P43220 24-463): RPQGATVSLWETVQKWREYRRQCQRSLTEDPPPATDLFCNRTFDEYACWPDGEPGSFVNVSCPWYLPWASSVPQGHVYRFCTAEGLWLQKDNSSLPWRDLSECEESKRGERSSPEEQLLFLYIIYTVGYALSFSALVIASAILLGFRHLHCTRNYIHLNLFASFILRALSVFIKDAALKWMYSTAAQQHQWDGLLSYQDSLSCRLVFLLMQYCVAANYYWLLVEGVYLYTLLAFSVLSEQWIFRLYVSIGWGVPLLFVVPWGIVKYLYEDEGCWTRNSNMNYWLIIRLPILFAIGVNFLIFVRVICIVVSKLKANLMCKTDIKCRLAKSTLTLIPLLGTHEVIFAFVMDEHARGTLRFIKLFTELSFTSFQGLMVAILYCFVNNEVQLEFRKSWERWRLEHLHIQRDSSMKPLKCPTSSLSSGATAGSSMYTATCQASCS

Regarding “Dulaglutide (Trade name: Trulicity) (Fc fusion)”, the GLP-1R agonist activity (EC50, nM) stood at 0.01 nM.

(Values after US20230218721A1, “INCRETIN ANALOGUE, PREPARATION METHOD THEREFOR, AND USE THEREOF” (ZHEJIANG DOER BIOLOGICS CO., LTD., priority 2020, published 2023).)
